Results published in patent US20110176995A1 (Chugai, published 2011).

How the values were obtained:
[1] = target: T1, HA-GPR49 (full-length human GPR49 with an HA-tag inserted at the N-terminus) (human, UniProt O75473 22-907); experiment: immunoprecipitation from 2B10 cell lysate, Western blot detection
T1 construct: Expressed in DG44 cells (line 2B10) and, inducibly with doxycycline, in 293FlpIn T-Rex cells (lines B2, B4); On whole cells in flow cytometry and cytotoxicity assays; as cell lysate in Western blotting and immunoprecipitation; also called human GPR49/DG44 cells (2B10); HA-GPR49-expressing DG44 cell line 2B10; not shown: HA-tag inserted at the N-terminus of GPR49
T1 sequence: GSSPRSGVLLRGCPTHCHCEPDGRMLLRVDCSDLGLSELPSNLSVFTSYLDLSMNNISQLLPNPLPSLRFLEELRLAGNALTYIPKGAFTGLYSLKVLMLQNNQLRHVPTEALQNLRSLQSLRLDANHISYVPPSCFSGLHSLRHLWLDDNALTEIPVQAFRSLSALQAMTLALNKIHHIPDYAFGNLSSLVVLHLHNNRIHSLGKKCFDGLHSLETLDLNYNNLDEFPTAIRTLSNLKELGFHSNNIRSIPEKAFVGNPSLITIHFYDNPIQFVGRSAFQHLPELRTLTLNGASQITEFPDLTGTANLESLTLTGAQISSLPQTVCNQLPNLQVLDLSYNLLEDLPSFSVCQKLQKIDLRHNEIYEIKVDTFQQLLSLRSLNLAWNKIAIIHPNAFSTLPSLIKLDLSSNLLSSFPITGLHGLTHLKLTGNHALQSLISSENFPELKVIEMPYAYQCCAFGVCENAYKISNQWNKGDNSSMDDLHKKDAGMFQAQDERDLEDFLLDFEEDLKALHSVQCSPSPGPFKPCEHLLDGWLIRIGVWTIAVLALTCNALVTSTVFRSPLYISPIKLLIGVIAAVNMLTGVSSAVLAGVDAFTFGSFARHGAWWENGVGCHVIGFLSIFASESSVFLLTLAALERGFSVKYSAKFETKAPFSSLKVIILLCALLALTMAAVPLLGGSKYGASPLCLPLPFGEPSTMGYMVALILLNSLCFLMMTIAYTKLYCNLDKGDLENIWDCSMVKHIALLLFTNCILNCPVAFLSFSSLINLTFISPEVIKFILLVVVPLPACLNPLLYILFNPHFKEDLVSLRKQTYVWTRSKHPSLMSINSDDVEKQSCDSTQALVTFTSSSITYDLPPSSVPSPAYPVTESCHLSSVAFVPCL
Method: To confirm the presence of the 40-kDa and 60-kDa protein bands detected in Western blotting, immunoprecipitation experiments were carried out using GPR49 monoclonal antibodies. Cell lysate prepared by solubilizing HA-GPR49-expressing DG44 cell line 2B10 in NP40 lysis buffer (0.5% NP40, 50 mM Tris-HCl (pH7.5), 150 mM NaCl, protease inhibitor complete mini (Roche)) was used as the sample for immunoprecipitation. The amount of protein included in the cell lysate was quantified by DC Protein Assay using BSA as a standard. A solution containing 2 μg of antibody was added to 500 μL of cell lysate containing 100 μg of protein, and this was reacted at 4° C. for one hour. Additionally, 20 μL of Protein A/G Plus agarose (Santa Cruz) was added and this was reacted overnight. Agarose beads were centrifugated at 1,000×g for one minute, washed twice with 1 mL of PBS, and then antigens bound to the antibodies were eluted by adding 50 μL of 2×SDS-sample buffer and warming at 60° C. for 30 minutes. After centrifuging at 1,000×g for one minutes, 15 μL of the supernatant obtained was subjected to SDS-PAGE. […] As is seen in the lanes for the samples immunoprecipitated using 2L13-3 and 2L36-12, a 40-kDa band and a 60-kDa band in addition to the 100-kDa band could surely be detected using 2U1E-1 and 2U2E-2, respectively. […]

[2] = target: T1, HA-GPR49 (full-length human GPR49 with …); experiment: flow cytometry, hybridoma supernatant on 2B10 cells against parental DG44
Method: The binding to the human GPR49/DG44 cells (2B 10) was evaluated by flow cytometry using the obtained hybridomas. The cell lines expressing human GPR49 suspended in FACS buffer (2% FBS/PBS/0.05% NaN₃) were diluted to 1×10⁶ cells/mL with FACS buffer, and then aliquoted at 50 μL/well into a Falcon 353910 round-bottom 96-well plate. Hybridoma culture supernatant diluted to a suitable concentration was added to the wells containing the cells and reacted for 60 minutes on ice. Then, the cells were washed once with FACS buffer. Goat F(ab′)₂ fragment anti-mouse IgG(H+ L)-FITC (Beckman Coulter) was added to the wells containing the cells as a secondary antibody, and reacted for 30 minutes on ice. After reaction, the supernatant was removed by centrifugation, and then the cells suspended in 100 μL of FACS buffer were subjected to flow cytometry. A FACS Calibur (Becton Dickinson) was used for flow cytometry. The viable cell population was gated with a forward scatter-side scatter dot blot, an FL1 histogram was made of the cells contained in the population, and binding activity thereof was evaluated.
When the hybridoma supernatants were reacted with 2B 10 in which GPR49 is induced and expressed in DG44 cells and with the parental cell line DG44 respectively, hybridomas that specifically reacted with GPR49-expressing cells were obtained. The hybridomas from these wells were made into single clones by the limiting dilution method. The isotype of each antibody was analyzed using an IsoStrip™ mouse monoclonal antibody isotyping kit (Roche Diagnostics). As a result, 2J18-1N and 2J18-3 were IgM, and 2L7-8, 2L9-3, 2L10-19, 2L13-3, 2L15-12, 2L16-15, 2L18-15, 2L33-6, 2L34-5, 2L36-12, 2T4E-6, 2T9E1#14, 2T15E-2, 2T42E-4, 2T54-2, 2T65-3, 2T37-16, 2U1E-1, 2U2E-2, and 2U4E-11 were IgG1. Culturing of the hybridomas made into single clones was scaled up, and then the antibodies were purified from the culture supernatant using a protein G column in accordance with the manual. The IgM antibodies were purified using a protein L column in accordance with the manual. The purified antibodies were quantified by DC Protein Assay or such.

mouse GPR49 = target: T2, mouse GPR49 (mouse, UniProt Q9Z1P4 22-907, limits assumed); experiment: Western blotting
T2 construct: Expressed transiently in 293T cells; the cell lysate was analysed by Western blotting; also called mouse (M) GPR49
T2 sequence (looked up): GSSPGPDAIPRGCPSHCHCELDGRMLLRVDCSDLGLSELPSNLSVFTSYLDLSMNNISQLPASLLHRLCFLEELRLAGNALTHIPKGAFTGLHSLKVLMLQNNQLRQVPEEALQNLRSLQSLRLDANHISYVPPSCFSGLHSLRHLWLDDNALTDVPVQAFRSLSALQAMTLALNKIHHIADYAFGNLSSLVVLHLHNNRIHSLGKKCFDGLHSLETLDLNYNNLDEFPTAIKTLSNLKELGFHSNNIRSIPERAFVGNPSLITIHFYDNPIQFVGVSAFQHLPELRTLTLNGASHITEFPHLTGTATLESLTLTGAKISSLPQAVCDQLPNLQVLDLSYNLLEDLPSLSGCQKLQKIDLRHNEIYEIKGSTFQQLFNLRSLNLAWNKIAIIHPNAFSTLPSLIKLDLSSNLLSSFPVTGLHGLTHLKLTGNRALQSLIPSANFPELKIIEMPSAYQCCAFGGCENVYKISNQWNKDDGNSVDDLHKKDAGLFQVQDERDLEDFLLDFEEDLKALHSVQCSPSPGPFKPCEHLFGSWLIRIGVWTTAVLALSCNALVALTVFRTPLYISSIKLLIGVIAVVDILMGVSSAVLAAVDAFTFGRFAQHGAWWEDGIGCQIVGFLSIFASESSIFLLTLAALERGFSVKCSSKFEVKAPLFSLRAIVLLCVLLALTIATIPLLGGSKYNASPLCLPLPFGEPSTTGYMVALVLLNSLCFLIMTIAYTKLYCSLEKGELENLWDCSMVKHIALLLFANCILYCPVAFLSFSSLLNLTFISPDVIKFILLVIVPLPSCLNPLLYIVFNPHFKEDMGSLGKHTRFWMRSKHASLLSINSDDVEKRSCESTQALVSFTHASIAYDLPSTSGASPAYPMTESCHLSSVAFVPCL

human GPR49 protein [3] = target: T3, human GPR49 protein (human, UniProt O75473 22-907); experiment: Western blotting of LoVo cell lysate
T3 construct: also called LGR5; GPR49 molecule
T3 sequence: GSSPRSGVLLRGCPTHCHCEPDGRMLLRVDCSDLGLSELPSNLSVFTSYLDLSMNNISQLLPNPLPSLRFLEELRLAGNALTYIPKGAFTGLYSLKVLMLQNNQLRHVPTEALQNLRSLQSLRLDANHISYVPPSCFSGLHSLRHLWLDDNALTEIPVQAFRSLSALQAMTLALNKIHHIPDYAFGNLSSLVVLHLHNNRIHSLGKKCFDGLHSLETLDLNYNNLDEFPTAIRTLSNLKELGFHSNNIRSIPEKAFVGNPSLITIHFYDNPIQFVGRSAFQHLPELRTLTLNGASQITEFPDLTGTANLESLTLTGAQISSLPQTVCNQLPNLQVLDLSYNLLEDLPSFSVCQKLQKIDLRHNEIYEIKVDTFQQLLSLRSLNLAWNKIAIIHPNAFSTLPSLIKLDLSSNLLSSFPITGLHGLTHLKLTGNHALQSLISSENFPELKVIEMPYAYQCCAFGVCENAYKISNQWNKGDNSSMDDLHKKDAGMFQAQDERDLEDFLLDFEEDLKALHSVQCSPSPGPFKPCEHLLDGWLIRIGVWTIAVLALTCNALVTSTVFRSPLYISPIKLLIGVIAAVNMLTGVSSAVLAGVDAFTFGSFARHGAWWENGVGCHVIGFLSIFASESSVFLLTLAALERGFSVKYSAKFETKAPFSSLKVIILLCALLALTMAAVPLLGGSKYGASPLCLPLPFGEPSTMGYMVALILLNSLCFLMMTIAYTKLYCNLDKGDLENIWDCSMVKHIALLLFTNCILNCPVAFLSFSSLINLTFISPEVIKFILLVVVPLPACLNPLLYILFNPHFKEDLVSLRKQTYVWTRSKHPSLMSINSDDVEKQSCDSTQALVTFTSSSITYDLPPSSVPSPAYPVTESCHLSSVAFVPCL

human GPR49 protein [4] = target: T3, human GPR49 protein; experiment: flow cytometry, 10 ug/mL antibody on OVSAHO, Alexander and NUGC-4 cells
Method: The reactivity of 2T15E-2 antibody to human cancer cell lines were analyzed by flow cytometry. Human cancer cell lines suspended in a FACS buffer (2% FBS/PBS/0.05% NaN₃) were diluted to 1×10⁶ cells/mL with the FACS buffer, and the solutions were then dispensed into a Falcon 353910 round-bottom 96-well plate at 50 μL/well. 2T15E-2 antibody diluted to a concentration of 10 μg/mL was added, and this was reacted for 60 minutes on ice. Next, the cells were washed once with the FACS buffer. After adding Goat F(ab′)₂ fragment anti-mouse IgG (Fcγ)-FITC (Beckman Coulter) as a secondary antibody to the wells containing the cells, this was reacted for 30 minutes on ice. After the reaction, the supernatant was removed by centrifugation, and then the cells were suspended in 100 μL of FACS buffer containing propidium iodide (PI) and then subjected to flow cytometry. A FACS Calibur (Becton Dickinson) was used for the flow cytometry. The viable cell population was gated with a forward scatter-side scatter dot blot, an FL1 histogram was made of the cells contained in the population, and binding activity thereof was evaluated.
The peaks indicated with a solid line indicate the reactivity with cancer cell lines, and the shaded regions represent the peaks obtained when the reactions are carried out without antibodies. […]

Binder | binding result [1] | binding result [2] | binding result (mouse GPR49) | binding result (human GPR49 protein [3]) | binding result (human GPR49 protein [4])
anti-GPR49 monoclonal antibody 2L13-3 (antibody, mouse IgG1, V domains shown, Mouse IgG1 from hybridoma; light chain amplified with a kappa primer) VH: QVQLQQSGAELVRPGTSVKMSCKAAGYTFTNSWIGWVKQRPGHGLEWIGDIYPGGDYTNYNEKFKGKATLTADTSSSTAYMQLSSLTSEDAAIYYCTRGDGYFDYWGQGTTLTVSS VL: DIVMTQSHKFMSTSVGDRVSITCKASQDVSIDVAWYQQRPGQSPKLLIYSASYRYTGVPDRFTGSGSGTDFTFTVSSVQAEDLAVYYCQQHYSTPPTFGGGTKLEIK | binds |  |  |  | 
anti-GPR49 monoclonal antibody 2J18-1N (antibody, mouse IgM, V domains shown, Mouse IgM from hybridoma; light chain amplified with a kappa primer) VH: EVQLQQSGPELVKPGDSVKMSCKASGYTFTDYYMDWVKQSHGKSLEWIGYIYPNNGGTSYNQKFKGKATLTVDKSSSTAYMELHSLTSEDSAVYYCARPYYSNSFAYWGQGTLVTVSA VL: QIVLTQSPAIMSASPGEKVTMTCRASSSVSSSYLHWYQQKPGSSPKLWIYSTSNLASGVPARFSGSGSGTSYSLTISSVEAEDAATYYCQQYDSSPFTFGTGTKLEIK |  | binds |  |  | 
anti-GPR49 monoclonal antibody 2L36-12 (antibody, mouse IgG1, V domains shown, Mouse IgG1 from hybridoma; light chain amplified with a kappa primer) VH: QVQLQQSGAELVRPGTSVKVSCKASGYDFTNYLIEWVNQRPGQGLEWIGVINPGSGGTNYNEKFKGKATLTADKSSSTAYMQLSSLTSDDSAVYLCARYSPYGNYFDYWGQGTTLTVSS VL: DIVMTQSHKFMSTSVGDRVSITCRASQDVGTAVAWYQQKPGQSPKLLIYWASTRHTGVPDRFTGSGSGTDFTLTINNVQSEDLADYFCQQYSSYPPTFGGGTKLEIK |  | binds |  |  | 
anti-GPR49 monoclonal antibody 2U1E-1 (antibody, mouse IgG1, V domains shown, Mouse IgG1 from hybridoma; light chain amplified with a kappa primer) VH: QVQLQQPGAELVEPGASVKLSCKASGYTFTNYYMYWVKQRPGQGLEWIGGINPNNGGTNFNEKFKSKATLTVDKSSSTAYMQLSSLTSEDSAVYYCTGIYYRYNWHFGVWGAGTTVTVSS VL: DVLMTQTPLSLPVSLGDQASISCRSSQTIVHSNGNTYLEWYLQKPGQSPKLLIYKVSNRFSGVPDRFSGSGSGTDFTLKIYRVEAEDLGIYYCFQGSHVPWTFGGGTKLEIK |  | binds | binds | binds | 
anti-GPR49 monoclonal antibody 2U2E-2 (antibody, mouse IgG1, V domains shown, Mouse IgG1 from hybridoma; light chain amplified with a kappa primer) VH: EVKLVESGGDLVKPGGSLKLSCAASGFIFSTYAMSWVRQIPEKRLEWVASISPDGNTFYPDSLKGRFTISRDNVRNILYLQMSSLRSEDTAMYYCAVTGTFAYWGQGTLVTVSG VL: DVLMTQTPLSLPVSLGDQASISCRSSQNILHSDGNTYLEWFLQKPGQSPKLLIFKISNRFPGVPDRFSGSGSGTDFTLKISRVEAEDLGVYYCFQSSHVPYTFGGGTKLEIK |  | binds | binds | binds | 
anti-GPR49 monoclonal antibody 2T15E-2 (antibody, mouse IgG1, V domains shown, Mouse IgG1 from hybridoma; light chain amplified with a kappa primer) VH: EVQLVESGGGLVKPGGSLKISCAASGFTSSNYAMSWVRQTPEKRLEWVATISSGGGYTYYPDSEKGRFAISRDNAKNTLYLQMSGLRSEDTAMYYCATQLYYRSHYYSMDYWGQGSSVTVSS VL: QIVLTQSPAIMSASPGEKVTMTCSASSSISYMHWYQQKSGTSPKRWIYDTSKLASGVPARFSGSGSGTSYSLTISSMEAEDAATYYCQQWHSKPATFGAGTKLELK |  | binds |  |  | binds
